Source: US20120058906A1 (published 2012)
Each block holds one binder with its values, some of them ahead of it.

How the values were obtained:
[1] = target: T1, Recombinant Human DLL4 (R&D Systems Cat#1506-D4/CF) (human, UniProt Q9NR61 27-524); assay: ECL (MSD Multi-Spot) binding assay, antigen spotted on plate; Fab 480 nM; blank spot 362;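 also: blank spot per well as comparator with Hit at signal to blank ratio of 4 or more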
T1 construct: Bought recombinant protein; also called delta-like protein 4; rHuman DLL4

[2] = target: T2, rHuman Notch-1/Fc Chimera, CF (R&D Systems Cat#3647-TK) (human, UniProt P46531 19-526); assay: as above
T2 construct: Bought Fc chimera; Fc part of the bought chimera not given

[3] = target: T3, rHuman HGF R/c-MET/Fc Chimera, CF (R&D Systems Cat#358-MT/CF) (human, UniProt P08581 25-932); assay: MSD ECL titration, Fab 37.2 nM, blank 199;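 also: blank spot per well as comparator with Hit at signal to blank ratio of 4 or more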
T3 construct: Bought Fc chimera; also called HGF R/Fc; Fc part of the bought chimera not given

[4] = target: T4, Recombinant Human DLL4 (R&D Systems Cat#1506-D4/CF) (human, UniProt Q9NR61 27-524); assay: MSD ECL titration, Fab 37.2 nM, blank 199;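 also: blank spot per well as comparator with Hit at signal to blank ratio of 4 or more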
T4 construct: Bought recombinant protein; also called rHuman DLL4; delta-like protein 4

[5] = target: T5, rHuman Notch-1/Fc Chimera, CF (R&D Systems Cat#3647-TK) (human, UniProt P46531 19-526); assay: MSD ECL titration, Fab 37.2 nM, blank 199;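 also: blank spot per well as comparator with Hit at signal to blank ratio of 4 or more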
T5 construct: Bought Fc chimera; Fc part of the bought chimera not given

[6] = target: T6, rHuman ErbB2/Fc Chimera, CF (R&D Systems Cat#1129-ER) (human, UniProt P04626 23-652); assay: MSD ECL titration, Fab 37.2 nM, blank 199;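 also: blank spot per well as comparator with Hit at signal to blank ratio of 4 or more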
T6 construct: Bought Fc chimera; also called HER2/neu; Fc part of the bought chimera not given

[7] = target: T7, rHuman P-Cadherin/Fc Chimera, CF (R&D Systems Cat#861-PC) (human, UniProt P22223 108-654); assay: MSD ECL titration, Fab 37.2 nM, blank 199;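 also: blank spot per well as comparator with Hit at signal to blank ratio of 4 or more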
T7 construct: Bought Fc chimera; Fc part of the bought chimera not given

[8] = target: T8, rHuman EGF R/Fc Chimera, CF (R&D Systems Cat#344-ER) (human, UniProt P00533 25-645); assay: MSD ECL titration, Fab 37.2 nM, blank 199;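 also: blank spot per well as comparator with Hit at signal to blank ratio of 4 or more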
T8 construct: Bought Fc chimera; Fc part of the bought chimera not given

[9] = target: T9, rHuman CD44/Fc Chimera, CF (R&D Systems Cat#3660-CD) (human, UniProt P16070 21-220); assay: MSD ECL titration, Fab 37.2 nM, blank 199
T9 construct: Bought Fc chimera; Fc part of the bought chimera not given

[10] = target: T10, rHuman IGF-1 sR (insulin-like growth factor-1 soluble receptor), CF (R&D Systems Cat#391-GR) (human, UniProt P08069 31-932); assay: MSD ECL titration, Fab 37.2 nM, blank 199
T10 construct: Bought soluble receptor; also called IGF-R1

[11] = target: T11, rHuman Erythropoietin R/Fc Chimera, CF (R&D Systems Cat#963-ER) (human, UniProt P19235 25-250); assay: MSD ECL titration, Fab 37.2 nM, blank 199
T11 construct: Bought Fc chimera; also called EPO R/Fc; EPOR; Fc part of the bought chimera not given
T11 sequence: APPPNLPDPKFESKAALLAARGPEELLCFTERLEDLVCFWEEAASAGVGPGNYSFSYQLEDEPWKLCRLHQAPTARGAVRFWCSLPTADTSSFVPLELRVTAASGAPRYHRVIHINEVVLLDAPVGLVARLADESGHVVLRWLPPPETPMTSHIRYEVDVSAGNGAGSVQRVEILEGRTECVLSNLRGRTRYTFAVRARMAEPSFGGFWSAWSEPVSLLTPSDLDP

[12] = target: T12, Recombinant Human DLL4 (R&D Systems Cat#1506-D4/CF) (human, UniProt Q9NR61 27-524); assay: MSD ECL multi-spot plate, antigen immobilized; Fab 200 nM; blank spot 529
T12 construct: Purchased recombinant protein; also called delta-like protein 4

[13] = target: T13, rHuman Erythropoietin R/Fc Chimera, CF (R&D Systems Cat#963-ER) (human, UniProt P19235 25-250); assay: as above
T13 construct: Purchased Fc chimera; also called EPO R/Fc; Epo R; not shown: Fc portion of the purchased chimera
T13 sequence: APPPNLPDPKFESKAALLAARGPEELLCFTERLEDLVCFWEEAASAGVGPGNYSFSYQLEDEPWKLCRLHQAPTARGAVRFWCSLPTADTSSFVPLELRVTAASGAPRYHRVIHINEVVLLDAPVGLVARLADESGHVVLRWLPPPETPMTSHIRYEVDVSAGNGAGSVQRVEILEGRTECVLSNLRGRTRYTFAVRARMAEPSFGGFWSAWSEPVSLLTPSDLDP

[14] = target: T14, rHuman P-Cadherin/Fc Chimera, CF (R&D Systems Cat#861-PC) (human, UniProt P22223 108-654); assay: as above
T14 construct: Purchased Fc chimera; not shown: Fc portion of the purchased chimera

[15] = target: T15, rHuman EGF R/Fc Chimera, CF (R&D Systems Cat#344-ER) (human, UniProt P00533 25-645); assay: as above
T15 construct: Purchased Fc chimera; not shown: Fc portion of the purchased chimera

[16] = target: T16, rHuman HGF R/c-MET/Fc Chimera, CF (R&D Systems Cat#358-MT/CF) (human, UniProt P08581 25-932); assay: as above
T16 construct: Purchased Fc chimera; also called HGF R/Fc; not shown: Fc portion of the purchased chimera

[17] = target: T17, rHuman IGF-1 sR (IGF-1 sR), CF (R&D Systems Cat#391-GR) (human, UniProt P08069 31-932); assay: as above
T17 construct: Purchased soluble receptor; also called insulin-like growth factor-1 soluble receptor; IGF-R1

[18] = target: T18, rHuman Notch-1/Fc Chimera, CF (R&D Systems Cat#3647-TK) (human, UniProt P46531 19-526); assay: as above
T18 construct: Purchased Fc chimera; not shown: Fc portion of the purchased chimera

[19] = target: T19, rHuman ErbB2/Fc Chimera, CF (R&D Systems Cat#1129-ER) (human, UniProt P04626 23-652); assay: as above
T19 construct: Purchased Fc chimera; also called HER2/neu; not shown: Fc portion of the purchased chimera

ECL signal [1]: 1530
ECL signal [2]: 545
B1: Fab VH6-1_IGHD3-3*01_IGHJ4*01 & V4-3_IGLJ4*01 (Fab, V domains shown)
VH: QVQLQQSGPGLVKPSQTLSLTCAISGDSVSSNSAAWNWIRQSPSRGLEWLGRTYYRSKWYNDYAVSVKSRITINPDTSKNQFSLQLNSVTPEDTAVYYCAREYYDFWSGYYTDYFDYWGQGTLVTVSS
VL: QPVLTQPTSLSASPGASARLTCTLRSGINLGSYRIFWYQQKPESPPRYLLSYYSDSSKHQGSGVPSRFSGSKDASSNAGILVISGLQSEDEADYYCMIWHSSASFVFGGGTQLIIL
notes: Tested as a Fab made in E. coli; also called IGHV6-1*01

ECL signal [3]: 207
ECL signal [4]: 16700
ECL signal [5]: 402
ECL signal [6]: 384
ECL signal [7]: 649
ECL signal [8]: 228
ECL signal [9]: 356
ECL signal [10]: 295
ECL signal [11]: 315
B2: Fab VH1-46_IGHD6-6*01_IGHJ1*01 & L6_IGKJ1*01 (Fab, V domains shown)
VH: QVQLVQSGAEVKKPGASVKVSCKASGYTFTSYYMHWVRQAPGQGLEWMGIINPSGGSTSYAQKFQGRVTMTRDTSTSTVYMELSSLRSEDTAVYYCAREEYSSSSAEYFQHWGQGTLVTVSS
VL: not shown
notes: Expressed in E. coli as Fab: heavy chain with CH1 plus Flag and His tags from Plasmid A, kappa light chain constant region from Plasmid C; also called Fab No. 1

ECL signal [12]: 29800 ECL signal
ECL signal [13]: 1180 ECL signal
ECL signal [14]: 815 ECL signal
ECL signal [15]: 1020 ECL signal
ECL signal [16]: 1160 ECL signal
ECL signal [17]: 1110 ECL signal
ECL signal [18]: 1330 ECL signal
ECL signal [19]: 1450 ECL signal
B3: Fab VH5-51_IGHD5-18*01>3_IGHJ4*01_G100R & V3-4_IGLJ1*01 (Fab, V domains shown)
VH: EVQLVQSGAEVKKPGESLKISCKGSGYSFTSYWIGWVRQMPGKGLEWMGIIYPGDSDTRYSPSFQGQVTISADKSISTAYLQWSSLKASDTAMYYCARRRYSYGYDYFDYWGQGTLVTVSS
VL: QTVVTQEPSFSVSPGGTVTLTCGLSSGSVSTSYYPSWYQQTPGQAPRTLIYSTNTRSSGVPDRFSGSILGNKAALTITGAQADDESDYYCVLYMGSGISYVFGTGTKVTVL
notes: It was expressed as a Fab: CH1 with tags from Plasmid A and lambda CL from Plasmid E; also called Fab No. 23
